# Measured values as given in EP1012307B1, “ZYMOGENIC PROTEASE PRECURSORS THAT CAN BE AUTOCATALYTICALLY ACTIVATED AND THEIR USE” (Roche Diagnostics GmbH, priority 1997, dated 1999).
# Peptide text beside a SMILES is read from it. * marks the point of attachment. pNA = O=[N+]([O-])c1ccc(N*)cc1; Tos = Cc1ccc(S(=O)(=O)*)cc1
# How the values were obtained:
# Assay in all cases: Trypsin activity with Chromozym TH as substrate, kinetic constants kcat and Km
# [1] = molecular target: T1, humanes Trypsin I, Trypsinvariante rTRYI-VGR (Aktivierungspeptid ValGlyArg, autokatalytisch aktiviert) (Homo sapiens, UniProt P07477); type: biochemical; details: Substrat: Chromozym®TH; 25°C, 50 mmol/l Tris-HCl, 150 mmol/l NaCl, 5 mmol/l CaCl2, 0,1% PEG 8000, pH 8,0
# T1 construct: kodierend für Trypsin I von Aminosäureposition 24-247; made in house
# Experimental: Das N-terminale native Trypsinogen I Prosegment AlaProPheAspAspAspAspLys wurde durch das Aktivierungspeptid ValGlyArg ersetzt. Das TRYI-VGR Trypsinvariantengen wurde analog wie das TRYI-GPK Trypsinvariantengen mittels PCR-Technik hergestellt.
# (§1) Die Aktivitätsbestimmung von Trypsin wurde in einem Volumen von 1 ml in 50 mmol/l Tris-HCl, 150 mmol/l NaCl, 5 mmol/l CaCl2, 0,1% PEG 8000, pH 8,0 und 0,1 mmol/l des chromogenen Substrats Chromozym®TH (Tosyl-Gly-Pro-Arg-4-pNA, Kat.-Nr. 838268, Boehringer Mannheim GmbH, Mannheim, Deutschland) bei 25°C durchgeführt. Die Reaktion wurde durch Zugabe von 1-10 µl Trypsin-haltiger Probe (0,4-4 U/ml, gelöst in 1 mmol/l HCl) gestartet und die Absorptionsänderung/min (ΔA/min) bei 405 nm (ε405 = 9,75 [mmol^-1 x 1 x cm^-1]) bestimmt. 1 Chromozym®TH Unit Trypsin ist definiert als die Menge Enzym, die 1 µmol pNitroanilin (pNA) pro min bei 25°C aus dem chromozymen Substrat freisetzt.
# Die FXa Aktivitätsbestimmung wurde mit dem chromogenen Substrat Chromozym® X (0,1 mmol/l, N-Methoxycarbonyl-D-Nle-Gly-Arg-pNA, Boehringer Mannheim GmbH, Mannheim, Kat.-Nr. 789763) in einem Volumen von 1 ml bei 25°C in 50 mmol/l Tris-HCl, 150 mmol/l NaCl, 5 mmol/l CaCl2, 0,1% PEG 8000, pH 8,0, durchgeführt. […]
# [2] = substrate: Cc1ccc(S(=O)(=O)NCC(=O)N2CCC[C@H]2C(=O)N[C@@H](CCCNC(=N)N)C(=O)Nc2ccc([N+](=O)[O-])cc2)cc1; type: biochemical, human; details: other: Substrat: Chromozym®TH, 25°C, 50 mmol/l Tris-HCl, 150 mmol/l NaCl, 5 mmol/l CaCl2, 0,1% PEG 8000, pH 8,0
# Text: Durch Einführung einer zusätzlichen Disulfidbrücke wurde das humane Trypsin I Isoenzym verändert. Dazu wurde die Aminosäure Pro an Position 132 und die Aminosäure Tyr an Position 233 zu Cys mutiert (Aminosäuresequenz-Nummerierung entsprechend der Publikation von Emi, M. et al. (Gene 41 (1986) 305-310)). Durch diese 2 Punktmutationen (P132C und Y233C) kann sich eine zusätzliche 6-te Disulfidbrücke zwischen den erfindungsgemäß eingeführten Cysteinresten an Position 132 und 233 ausbilden. Zudem wurde die Aminosäure Pro an der Position 133 zu Ala mutiert (P133A).
# as §1
# (§2) Die FXa Aktivitätsbestimmung wurde mit dem chromogenen Substrat Chromozym® X (0,1 mmol/l, N-Methoxycarbonyl-D-Nle-Gly-Arg-pNA, Boehringer Mannheim GmbH, Mannheim, Kat.-Nr. 789763) in einem Volumen von 1 ml bei 25°C in 50 mmol/l Tris-HCl, 150 mmol/l NaCl, 5 mmol/l CaCl2, 0,1% PEG 8000, pH 8,0, durchgeführt. Die Reaktion wurde durch Zugabe von 1-10 µl rFXa-haltiger Probe (0,4-4 U/ml) gestartet und die Absorptionsänderung/min (ΔA/min) bei 405 nm (ε405 = 9,75 [mmol^-1 x 1 x cm^-1]) gemessen. 1 Unit (U) FXa Aktivität ist definiert als die Menge Enzym, die 1 µmol pNA pro min bei 25°C aus dem chromozymen Substrat freisetzt. Die Aktivität und die kinetischen Konstanten wurden aus der linearen Anfangssteigung gemäß der Michaelis-Menten-Gleichung bestimmt. Die Ergebnisse zeigt Tabelle 1. Tabelle 1
# [3] = substrate: Cc1ccc(S(=O)(=O)NCC(=O)N2CCC[C@H]2C(=O)N[C@@H](CCCNC(=N)N)C(=O)Nc2ccc([N+](=O)[O-])cc2)cc1; type: biochemical, Schweine; details: other: Substrat: Chromozym®TH, 25°C, 50 mmol/l Tris-HCl, 150 mmol/l NaCl, 5 mmol/l CaCl2, 0,1% PEG 8000, pH 8,0
# Experimental: as §1, §2
molecule,measurement,setting,value
"Cc1ccc(S(=O)(=O)NCC(=O)N2CCC[C@H]2C(=O)N[C@@H](CCCNC(=N)N)C(=O)Nc2ccc([N+](=O)[O-])cc2)cc1 [Chromozym®TH, Tosyl-Gly-Pro-Arg-4-pNA] (Tos-Gly-Pro-Arg-pNA)",kcat,[1],95 ± 1 s⁻¹
"humanes Trypsin I, Trypsinvariante rTRYI-GPK-SS (P132C, P133A, Y233C; zusätzliche Disulfidbrücke) (Homo sapiens; P132C/P133A/Y233C) (protein, kodierend für Trypsin I von Aminosäureposition 24-247; the Lys is residue 23) (N, cleaved yes); made in house) IVGGYNCEENSVPYQVSLNSGYHFCGGSLINEQWVVSAGHCYKSRIQVRLGEHNIEVLEGNEQFINAAKIIRHPQYDRKTLNNDIMLIKLSSRAVINARVSTISLPTACAATGTKCLISGWGNTASSGADYPDELQCLDAPVLSQAKCEASYPGKITSNMFCVGFLEGGKDSCQGDSGGPVVCNGQLQGVVSWGDGCAQKNKPGVYTKVCNYVKWIKNTIAANS",Km,[2],19 ± 1 µM
same,kcat,[2],99 ± 2 s⁻¹
same,kcat/Km,[2],"5,2 1/µM/s"
"Schweine Trypsin (Sigma-Aldrich Chemie GmbH, Kat.-Nr. T-7418) (Sus scrofa) (protein, purchased Sigma-Aldrich Chemie GmbH T-7418) IVGGYTCAANSIPYQVSLNSGSHFCGGSLINSQWVVSAAHCYKSRIQVRLGEHNIDVLEGNEQFINAAKIITHPNFNGNTLDNDIMLIKLSSPATLNSRVATVSLPRSCAAAGTECLISGWGNTKSSGSSYPSLLQCLKAPVLSDSSCKSSYPGQITGNMICVGFLEGGKDSCQGDSGGPVVCNGQLQGIVSWGYGCAQKNKPGVYTKVCNYVNWIQQTIAAN",Km,[3],8.5 µM
same,kcat,[3],97 ± 3 s⁻¹
same,kcat/Km,[3],"11,4 1/µM/s"
